Results on 35 variants are retold here after the Human Domainome abundance scans (Beltran et al. 2025).

The labels stand for the following.
B1: Storkhead-box protein 2, residues 64 to 141; numbered along this chain, Q9P2F5 (parent)
chain: SPISQSQFIPLGEILCLAISAMNSARKPVTQEALMEHLTTCFPGVPTPSQEILRHTLNTLVRERKIYPTPDGYFIVTP

± gives the uncertainty stated by the source.

The variants in this data set derive from B1. The data set is described as follows: abundance fitness (aPCA) (normalised: wild type 0, dead -1); higher = more abundant; growth selection in yeast, the domain comes from the species named. The conditions noted are these: Homo sapiens.
Turning to SPISQSQFIPLGEIGCLAISAMNSARKPVTQEALMEHLTTCFPGVPTPSQEILRHTLNTLVRERKIYPTPDGYFIVTP, the abundance fitness is -1.06 ± 0.13.

With SPISQSQFIPLGEIKCLAISAMNSARKPVTQEALMEHLTTCFPGVPTPSQEILRHTLNTLVRERKIYPTPDGYFIVTP, the abundance fitness is -0.572 ± 0.15.

With SPISQSQFIPLGEIPCLAISAMNSARKPVTQEALMEHLTTCFPGVPTPSQEILRHTLNTLVRERKIYPTPDGYFIVTP, the abundance fitness was -0.983 ± 0.098.

As for SPISQSQFIPLGEIACLAISAMNSARKPVTQEALMEHLTTCFPGVPTPSQEILRHTLNTLVRERKIYPTPDGYFIVTP, the abundance fitness was -0.034 ± 0.15.

Take SPISQSQFIPLGEIECLAISAMNSARKPVTQEALMEHLTTCFPGVPTPSQEILRHTLNTLVRERKIYPTPDGYFIVTP: the abundance fitness is -0.67 ± 0.12.

As to SPISQSQFIPLGEIHCLAISAMNSARKPVTQEALMEHLTTCFPGVPTPSQEILRHTLNTLVRERKIYPTPDGYFIVTP, the abundance fitness is -0.796 ± 0.31.

SPISQSQFIPLGEITCLAISAMNSARKPVTQEALMEHLTTCFPGVPTPSQEILRHTLNTLVRERKIYPTPDGYFIVTP: the abundance fitness came out at 0.059 ± 0.048.

In the case of SPISQSQFIPLGEIICLAISAMNSARKPVTQEALMEHLTTCFPGVPTPSQEILRHTLNTLVRERKIYPTPDGYFIVTP, the abundance fitness is -0.061 ± 0.097.

On to SPISQSQFIPLGEIQCLAISAMNSARKPVTQEALMEHLTTCFPGVPTPSQEILRHTLNTLVRERKIYPTPDGYFIVTP, for which the abundance fitness was -1.03 ± 0.15.

As to SPISQSQFIPLGEIRCLAISAMNSARKPVTQEALMEHLTTCFPGVPTPSQEILRHTLNTLVRERKIYPTPDGYFIVTP, the abundance fitness is -0.977 ± 0.079.

Regarding SPISQSQFIPLGEINCLAISAMNSARKPVTQEALMEHLTTCFPGVPTPSQEILRHTLNTLVRERKIYPTPDGYFIVTP, the abundance fitness was -0.613 ± 0.32.

For the variant SPISQSQFIPLGEIVCLAISAMNSARKPVTQEALMEHLTTCFPGVPTPSQEILRHTLNTLVRERKIYPTPDGYFIVTP, the abundance fitness was found to be 0.039 ± 0.061.

For the variant SPISQSQFIPLGEIYCLAISAMNSARKPVTQEALMEHLTTCFPGVPTPSQEILRHTLNTLVRERKIYPTPDGYFIVTP, the abundance fitness was -0.252 ± 0.11.

As for SPISQSQFIPLGEIMCLAISAMNSARKPVTQEALMEHLTTCFPGVPTPSQEILRHTLNTLVRERKIYPTPDGYFIVTP, the abundance fitness is -0.049 ± 0.075.

With SPISQSQFIPLGEISCLAISAMNSARKPVTQEALMEHLTTCFPGVPTPSQEILRHTLNTLVRERKIYPTPDGYFIVTP, the abundance fitness is -0.235 ± 0.042.

Consider SPISQSQFIPLGHILCLAISAMNSARKPVTQEALMEHLTTCFPGVPTPSQEILRHTLNTLVRERKIYPTPDGYFIVTP, for which the abundance fitness was -0.061 ± 0.16.

As to SPISQSQFIPLGTILCLAISAMNSARKPVTQEALMEHLTTCFPGVPTPSQEILRHTLNTLVRERKIYPTPDGYFIVTP, the abundance fitness was -0.016 ± 0.082.

Turning to SPISQSQFIPLGKILCLAISAMNSARKPVTQEALMEHLTTCFPGVPTPSQEILRHTLNTLVRERKIYPTPDGYFIVTP, the abundance fitness is -0.039 ± 0.1.

For SPISQSQFIPLGLILCLAISAMNSARKPVTQEALMEHLTTCFPGVPTPSQEILRHTLNTLVRERKIYPTPDGYFIVTP, the abundance fitness is -0.34 ± 0.05.

In the case of SPISQSQFIPLGGILCLAISAMNSARKPVTQEALMEHLTTCFPGVPTPSQEILRHTLNTLVRERKIYPTPDGYFIVTP, the abundance fitness is -0.009 ± 0.042.

In the case of SPISQSQFIPLGWILCLAISAMNSARKPVTQEALMEHLTTCFPGVPTPSQEILRHTLNTLVRERKIYPTPDGYFIVTP, the abundance fitness is -0.331 ± 0.068.

Turning to SPISQSQFIPLGSILCLAISAMNSARKPVTQEALMEHLTTCFPGVPTPSQEILRHTLNTLVRERKIYPTPDGYFIVTP, the abundance fitness is -0.039 ± 0.057.

In the case of SPISQSQFIPLGDILCLAISAMNSARKPVTQEALMEHLTTCFPGVPTPSQEILRHTLNTLVRERKIYPTPDGYFIVTP, the abundance fitness was -0.001 ± 0.11.

In the case of SPISQSQFIPLGMILCLAISAMNSARKPVTQEALMEHLTTCFPGVPTPSQEILRHTLNTLVRERKIYPTPDGYFIVTP, the abundance fitness is -0.206 ± 0.1.

Turning to SPISQSQFIPLGFILCLAISAMNSARKPVTQEALMEHLTTCFPGVPTPSQEILRHTLNTLVRERKIYPTPDGYFIVTP, the abundance fitness was -0.349 ± 0.081.

As to SPISQSQFIPLGVILCLAISAMNSARKPVTQEALMEHLTTCFPGVPTPSQEILRHTLNTLVRERKIYPTPDGYFIVTP, the abundance fitness was -0.241 ± 0.05.

For SPISQSQFIPLGQILCLAISAMNSARKPVTQEALMEHLTTCFPGVPTPSQEILRHTLNTLVRERKIYPTPDGYFIVTP, the abundance fitness worked out at 0.021 ± 0.067.

In the case of SPISQSQFIPLGPILCLAISAMNSARKPVTQEALMEHLTTCFPGVPTPSQEILRHTLNTLVRERKIYPTPDGYFIVTP, the abundance fitness was -0.059 ± 0.085.

Turning to SPISQSQFIPLGRILCLAISAMNSARKPVTQEALMEHLTTCFPGVPTPSQEILRHTLNTLVRERKIYPTPDGYFIVTP, the abundance fitness came to 0.078 ± 0.046.

As to SPISQSQFIPLGNILCLAISAMNSARKPVTQEALMEHLTTCFPGVPTPSQEILRHTLNTLVRERKIYPTPDGYFIVTP, the abundance fitness worked out at 0.02 ± 0.11.

For SPISQSQFIPLGEHLCLAISAMNSARKPVTQEALMEHLTTCFPGVPTPSQEILRHTLNTLVRERKIYPTPDGYFIVTP, the abundance fitness is 0.033 ± 0.28.

Take SPISQSQFIPLGEDLCLAISAMNSARKPVTQEALMEHLTTCFPGVPTPSQEILRHTLNTLVRERKIYPTPDGYFIVTP: the abundance fitness was -0.258 ± 0.41.

Regarding SPISQSQFIPLGENLCLAISAMNSARKPVTQEALMEHLTTCFPGVPTPSQEILRHTLNTLVRERKIYPTPDGYFIVTP, the abundance fitness is -0.384 ± 0.16.

Regarding SPISQSQFIPLGEVLCLAISAMNSARKPVTQEALMEHLTTCFPGVPTPSQEILRHTLNTLVRERKIYPTPDGYFIVTP, the abundance fitness is -0.031 ± 0.068.

With SPISQSQFIPLGELLCLAISAMNSARKPVTQEALMEHLTTCFPGVPTPSQEILRHTLNTLVRERKIYPTPDGYFIVTP, the abundance fitness is -0.035 ± 0.067.
